The source of these data is patent publication US20240197828A1, “Chimeric molecule to treat sepsis and other inflammatory conditions” (THE FEINSTEIN INSTITUTES FOR MEDICAL RESEARCH, priority 2022, published 2024).

The subject of this experiment is RAW264.7 macrophages. Put plainly: Intracellular uptake of FITC-rmCIRP by macrophages (flow cytometry, confocal microscopy). Format: cell-based, mouse. As to the method: FIG. 3. Effects of MOP peptides MOP-3, MOP-8 and MOP-14 on eCIRP. Flow cytometry experiment whereby RAW264.7 macrophages were treated for 1 hour according to respective group: PBS (volume-equivalent), FITC-rmCIRP (1 μg/mL), or a mixture of FITC-rmCIRP (1 μg/mL) with each respective peptide (10 μg/mL) after co-incubating for 30 minutes. Intracellular FITC-rmCIRP was analyzed by flow cytometry. Median fluorescence intensity (MFI) reported as percentage relative to PBS-treated RAW264.7 cells. Data from two independent experiments are expressed as mean±SEM and compared by one-way ANOVA and SNK test. *p<0.05 vs. PBS, #p<0.05 vs. eCIRP.
Computational modeling was used to determine the likely domain of MFG-E8's binding to eCIRP. The known amino acid (AA) sequence of this domain was used to develop and test potential therapeutic peptides. An MFG-E8 derived oligopeptide, MOP3, was developed based on 15 AA from MFG-E8 discoidin 2 domain (mimicking MFG-E8's C-terminal) and tagged with the 3 AA, RGD, (mimicking MFG-E8's binding capacity for the integrin receptor at the N-terminal). Binding of MOP3 to CIRP was quantified using Surface Plasmon Resonance (SPR) analysis. Macrophages (RAW264.7 cells) were treated with FITC-recombinant mouse (rm)-CIRP or co-incubated MOP3 and FITC-rmCIRP with and without a. Br-integrin Ab. After 1 h, cells were fixed and analyzed for intracellular FITC-rmCIRP by flow cytometry. Macrophages were stimulated with rmCIRP or co-incubated mixture of MOP3 and rmCIRP. After 4 h, cell culture supernatants were analyzed for inflammatory cytokine, TNFα.
Mouse macrophage cell line, RAW264.7 cells were obtained from American Type Culture Collection (ATCC) and cultured in DMEM media with 10% FBS, 1% penicillin and streptomycin, and 1% glutamine. Cells were kept in 37° C. incubator under humidified conditions containing 5% CO2.
rmCIRP was labeled using a FITC Conjugation Kit (Abcam, ab188285), and rmMFG-E8 was labeled using Alexa Fluor Conjugation Kit (Abcam, ab269821), both according to respective manufacturer's instructions.
In order to visualize cellular uptake, we initially utilized TRITC-BSA as an internal probe, as BSA is taken up into cells primarily by endocytosis and retained intracellularly after fixation (27, 28). For further visualization of intracellular localization, we utilized LAMP1 primary antibody (as it is distributed among endolysosomal organelles and serves as a marker for lysosomal compartments) (29), and utilized lysotracker in live cell experiments (as it allows for imaging of dynamics of lysosome vesicle movements) (30). […] Images were quantified and analyzed using Image J, FIJI.(31) Flow cytometry. […]
In general terms: In flow cytometry, cells or beads pass a laser one at a time.

B1: milk fat globule-epidermal growth factor—factor VIII (protein, listed as Mus musculus)
chain: MQVSRVLAALCGMLLCASGLFAASGDFCDSSLCLNGGTCLTGQDNDIYCLCPEGFTGLVCNETERGPCSPNPCYNDAKCLVTLDTQRGDIFTEYICQCPVGYSGIHCETETNYYNLDGEYMFTTAVPNTAVPTPAPTPDLSNNLASRCSTQLGMEGGAIADSQISASSVYMGFMGLQRWGPELARLYRTGIVNAWTASNYDSKPWIQVNLLRKMRVSGVMTQGASRAGRAEYLKTFKVAYSLDGRKFEFIQDESGGDKEFLGNLDNNSLKVNMFNPTLEAQYIKLYPVSCHRGCTLRFELLGCELHGCSEPLGLKNNTIPDSQMSASSSYKTWNLRAFGWYPHLGRLDNQGKINAWTAQSNSAKEWLQVDLGTQRQVTGIITQGARDFGHIQYVASYKVAHSDDGVQWTVYEEQGSSKVFQGNLDNNSHKKNIFEKPFMARYVRVLPVSWHNRITLRLELLGC
In the case of B1, the “FITC-eCIRP uptake (confocal fluorescence microscopy)” value (RAW264.7, 4 hours, vs FITC-eCIRP alone) is given as “marked increase of FITC-eCIRP uptake”. Moreover, the “intracellular FITC-rmCIRP uptake (flow cytometry)” value (RAW264.7, FITC-rmCIRP 1 μg/mL co-incubated with test substance (peptide 10 μg/mL), 1 hour, vs FITC-rmCIRP alone) was “enhanced internalization of FITC-eCIRP”. Moreover, the “intracellular FITC-eCIRP with αvβ3-integrin neutralizing antibody (confocal fluorescence microscopy)” value (RAW264.7, vs IgG isotype control) is “remarkably reduced”. In addition, the “intracellular FITC-rmCIRP uptake with αvβ3-integrin blocking antibody (flow cytometry)” value (RAW264.7, αvβ3-integrin antibody 0.5 μg/mL) was “significantly reduced”.
